One block for each binder: values may come before it.
How the values were obtained:
[1] = molecular target: the molecule itself; experiment: mixed disulfide complex formation, non-reducing SDS-PAGE with N-terminal sequencing; 50 μM Trxh1CS and 50 μM PrxQ incubated for the periods indicated, quenched with 5% TCA, non-reducing SDS-PAGE
[2] = molecular target: Trxh1 mutant with a C43S substitution (Arabidopsis thaliana) (UniProt P29448); experiment: SPR; Biacore X, 25°C; Trx variant immobilised as ligand on a CM5 chip by amine coupling (800–900 RU); target protein injected as analyte; H buffer (10 mM HEPES-NaOH, 150 mM NaCl, 50 μM EDTA, pH 7.4) with 0.005% Surfactant P20; 1:1 model for MDH, double exponential model for PrxQ; apparent (mixed disulfide formation with Trxh1CS)
[3] = molecular target: the molecule itself; experiment: SEC; TSK-G2000SWXL in H buffer, 280 nm; as a2 but without NEM treatment before the chromatography (for MDH: second round of the fractionated complex)

B1: Trxh1 mutant with a C43S substitution (natural protein, Arabidopsis thaliana, UniProt P29448 1-114, looked up)
chain: MASEEGQVIACHTVETWNEQLQKANESKTLVVVDFTASWCGPSRFIAPFFADLAKKLPNVLFLKVDTDELKSVASDWAIQAMPTFMFLKEGKILDKVVGAKKDELQSTIAKHLA
notes: thioredoxin h1 (Trxh1), cytosolic, Arabidopsis thaliana, AT3G51030, with C43S; Lacks the second cysteine of the catalytic motif; also called Trxh1CS; Trxh1CS mutant; source: expressed and purified as the wild-type Trxh1, with 0.5 mM DTT in all purification procedures
binding result [1]: binds

koff [2]: 0.000301 s⁻¹
kon [2]: 247 M⁻¹ s⁻¹
B2: Arabidopsis thaliana cytosolic malate dehydrogenase, oxidized form (enzyme, UniProt P93819 1-332, looked up)
chain: MAKEPVRVLVTGAAGQIGYALVPMIARGIMLGADQPVILHMLDIPPAAEALNGVKMELIDAAFPLLKGVVATTDAVEGCTGVNVAVMVGGFPRKEGMERKDVMSKNVSIYKSQAAALEKHAAPNCKVLVVANPANTNALILKEFAPSIPEKNISCLTRLDHNRALGQISERLSVPVSDVKNVIIWGNHSSSQYPDVNHAKVQTSSGEKPVRELVKDDAWLDGEFISTVQQRGAAIIKARKLSSALSAASSACDHIRDWVLGTPEGTFVSMGVYSDGSYSVPSGLIYSFPVTCRNGDWSIVQGLPIDEVSRKKMDLTAEELKEEKDLAYSCLS
modifications: Cys330–Cys330 intermolecular disulfide bond (oxidized form)
notes: cytosolic malate dehydrogenase (MDH), Arabidopsis thaliana, AT1G04410; also called MDH; oxidized MDH; source: cloned and purified as described in earlier work; oxidized by incubation with 50 μM CuCl2 for 1 h at 30°C
binding result [3]: binds

— publication PMC3867114, “Kinetic analysis of the interactions between plant thioredoxin and target proteins” (Frontiers in Plant Science, 2013)
